To fix the notation:
B1: Tryptophan synthase alpha chain, P0A877 (parent)
chain: MERYESLFAQLKERKEGAFVPFVTLGDPGIEQSLKIIDTLIEAGADALELGIPFSDPLADGPTIQNATLRAFAAGVTPAQCFEMLALIRQKHPTIPIGLLMYANLVFNKGIDEFYAQCEKVGVDSVLVADVPVEESAPFRQAALRHNVAPIFICPPNADDDLLRQIASYGRGYTYLLSRAGVTGAENRAALPLNHLVAKLKEYNAAPPLQGFGISAPDQVKAAIDAGAAGAISGSAIVKIIEQHINEPEKMLAALKVFVQPMKAATRS

“And” between values parts separate entries of the source, which are not always exact repeats. Identical values can stand only once.

This data set covers variants of B1. The following applies: Escherichia coli (strain K12), pH 7, 25 °C, GdnHCl, CD, Tris-HCl 20 mM, reversible: yes, structure 1WQ5, whole UniProt chain shown.

Regarding MERYESLFAQLKERKEGAFVPFVTLGDPGIEQSLKIIDTLIEAGADALELGIPFSDALADGPTIQNATLRAFAAGVTPAQCFEMLALIRQKHPTIPIGLLMYANLVFNKGIDEFYAQCEKVGVDSVLVADVPVEESAPFRQAALRHNVAPIFICPPNADDDLLRQIASYGRGYTYLLSRAGVTGAENRAALPLNHLVAKLKEYNAAPPLQGFGISAPDQVKAAIDAGAAGAISGSAIVKIIEQHINEPEKMLAALKVFVQPMKAATRS [P57A], the “ddG of mutation (higher = less stable)” value amounted to 0.48 kcal/mol and the unfolding free energy was 7.73 kcal/mol. Further, for the setting “transition: 3”, the “ddG of mutation (higher = less stable)” value was 0.24 kcal/mol; the unfolding free energy is 4 kcal/mol and 3.76 kcal/mol.
Turning to MERYESLFAQLKERKEGAFVPFVTLGDAGIEQSLKIIDTLIEAGADALELGIPFSDPLADGPTIQNATLRAFAAGVTPAQCFEMLALIRQKHPTIPIGLLMYANLVFNKGIDEFYAQCEKVGVDSVLVADVPVEESAPFRQAALRHNVAPIFICPPNADDDLLRQIASYGRGYTYLLSRAGVTGAENRAALPLNHLVAKLKEYNAAPPLQGFGISAPDQVKAAIDAGAAGAISGSAIVKIIEQHINEPEKMLAALKVFVQPMKAATRS [P28A], the “ddG of mutation (higher = less stable)” value was found to be 1.91 kcal/mol and the unfolding free energy turned out to be 6.29 kcal/mol. In addition, the unfolding free energy (transition: 3) is 2.27 kcal/mol and 4.04 kcal/mol.
As to MERYESLFAQLKERKEGAFVPFVTLGDPGIEQSLKIIDTLIEAGADALELGIPFSDPLADGATIQNATLRAFAAGVTPAQCFEMLALIRQKHPTIPIGLLMYANLVFNKGIDEFYAQCEKVGVDSVLVADVPVEESAPFRQAALRHNVAPIFICPPNADDDLLRQIASYGRGYTYLLSRAGVTGAENRAALPLNHLVAKLKEYNAAPPLQGFGISAPDQVKAAIDAGAAGAISGSAIVKIIEQHINEPEKMLAALKVFVQPMKAATRS [P62A], the “ddG of mutation (higher = less stable)” value was 0.31 kcal/mol and the unfolding free energy was found to be 7.89 kcal/mol. In addition, the unfolding free energy (transition: 3) is 3.54 kcal/mol and 4.35 kcal/mol.
Turning to MERYESLFAQLKERKEGAFVPFVTLGDPGIEQSLKIIDTLIEAGADALELGIPFSDPLADGPTIQNATLRAFAAGVTPAQCFEMLALIRQKHPTIPIGLLMYANLVFNKGIDEFYAQCEKVGVDSVLVADVAVEESAPFRQAALRHNVAPIFICPPNADDDLLRQIASYGRGYTYLLSRAGVTGAENRAALPLNHLVAKLKEYNAAPPLQGFGISAPDQVKAAIDAGAAGAISGSAIVKIIEQHINEPEKMLAALKVFVQPMKAATRS [P132A], the “ddG of mutation (higher = less stable)” value worked out at 1.05 kcal/mol and the unfolding free energy came to 7.15 kcal/mol. The unfolding free energy (transition: 3) was 3.33 kcal/mol and 3.85 kcal/mol.
On to MERYESLFAQLKERKEGAFVPFVTLGDPGIEQSLKIIDTLIEAGADALELGIPFSDPLADGPTIQNATLRAFAAGVTPAQCFEMLALIRQKHPTIAIGLLMYANLVFNKGIDEFYAQCEKVGVDSVLVADVPVEESAPFRQAALRHNVAPIFICPPNADDDLLRQIASYGRGYTYLLSRAGVTGAENRAALPLNHLVAKLKEYNAAPPLQGFGISAPDQVKAAIDAGAAGAISGSAIVKIIEQHINEPEKMLAALKVFVQPMKAATRS [P96A], for which the “ddG of mutation (higher = less stable)” value came to 2.13 kcal/mol and the unfolding free energy was 6.08 kcal/mol. Also, where the note is “transition: 3”, the “ddG of mutation (higher = less stable)” value was 1.6 kcal/mol and 0.55 kcal/mol; the unfolding free energy was 2.63 kcal/mol and 3.44 kcal/mol.
MERYESLFAQLKERKEGAFVPFVTLGDPGIEQSLKIIDTLIEAGADALELGIPFSDPLADGPTIQNATLRAFAAGVTPAQCFEMLALIRQKHPTIPIGLLMYANLVFNKGIDEFYAQCEKVGVDSVLVADVPVEESAPFRQAALRHNVAPIFICPPNADDDLLRQIASYGRGYTYLLSRAGVTGAENRAALPLNHLVAKLKEYNAAAPLQGFGISAPDQVKAAIDAGAAGAISGSAIVKIIEQHINEPEKMLAALKVFVQPMKAATRS [P207A]: the unfolding free energy (transition: 3) was 2.44 kcal/mol and 4.62 kcal/mol.
